Experimental data published in patent publication US20220235143A1.

Columns and labels:
[1] = target: MUC16 c114 expressed on transfected SKOV3 cells (SKOV3^c114) (human); assay: Lindmo cell-binding assay on SKOV3^c114 cells
[2] = target: MUC16 c114 expressed on transfected SKOV3 cells (SKOV3^c114) (human); assay: saturation binding of 89Zr-DFO antibody on SKOV3^c114 cells
[3] = target: MUC16 c114 expressed on transfected SKOV3 cells (SKOV3^c114) (human); assay: Lindmo cell-binding assay, 89Zr-DFO antibody on SKOV3^c114 cells
[4] = target: MUC16 c114 expressed on transfected SKOV3 cells (SKOV3^c114) (human); assay: saturation binding assay, 89Zr-labeled antibody on SKOV3^c114 cells, cell bound activity (counts); right panel
[5] = target: MUC16 as naturally expressed on ovarian cancer cell lines (OVCAR3; also OVCA-433, CAOV3) (human); assay: FACS surface staining of OVCAR3 cells, goat anti-mouse IgG2b-PE detection; same cells: secondary alone 65.8, cells only 24.6
[6] = target: MUC16 as naturally expressed on ovarian cancer cell lines (OVCAR3; also OVCA-433, CAOV3) (human); assay: FACS surface staining of OVCAR3 cells, goat anti-mouse IgG2b-PE detection; same cells: secondary alone 1.95, cells only 0.34
[7] = target: MUC16 c114 expressed on transfected SKOV3 cells (SKOV3^c114) (human); assay: FACS surface staining of SKOV3-c114 transfectant cells, goat anti-mouse IgG2b-PE detection; same cells: secondary alone 138, cells only 36.8; 4H11 on vector control SKOV3-phrGFP 162
[8] = target: MUC16 c344 expressed on transfected cells (SKOV3-phrGFP-MUC16c344, A2780-phrGFP-MUC16c344) (human); assay: FACS surface staining of SKOV3-c344 transfectant cells, goat anti-mouse IgG2b-PE detection; same cells: secondary alone 106, cells only 49.2; 4H11 on vector control SKOV3-phrGFP 162
[9] = target: MUC16 c114 expressed on transfected SKOV3 cells (SKOV3^c114) (human); assay: FACS surface staining of A2780-c114 transfectant cells, goat anti-mouse IgG2b-PE detection; same cells: secondary alone 0.10, cells only 0.01; 4H11 on vector control A2780-phrGFP 0.88
[10] = target: MUC16 c344 expressed on transfected cells (SKOV3-phrGFP-MUC16c344, A2780-phrGFP-MUC16c344) (human); assay: FACS surface staining of A2780-c344 transfectant cells, goat anti-mouse IgG2b-PE detection; same cells: secondary alone 0.68, cells only 0.07; 4H11 on vector control A2780-phrGFP 0.88
[11] = target: MUC16 c114 expressed on transfected SKOV3 cells (SKOV3^c114) (human); assay: FACS surface staining of SKOV3-c114 transfectant cells, goat anti-mouse IgG2b-PE detection; same cells: secondary alone 6.80, cells only 0.14; 4H11 on vector control SKOV3-phrGFP 2.80
[12] = target: MUC16 c344 expressed on transfected cells (SKOV3-phrGFP-MUC16c344, A2780-phrGFP-MUC16c344) (human); assay: FACS surface staining of SKOV3-c344 transfectant cells, goat anti-mouse IgG2b-PE detection; same cells: secondary alone 0.53, cells only 0.04; 4H11 on vector control SKOV3-phrGFP 2.80
[13] = target: MUC16 c114 expressed on transfected SKOV3 cells (SKOV3^c114) (human); assay: FACS surface staining of A2780-c114 transfectant cells, goat anti-mouse IgG2b-PE detection; same cells: secondary alone 42.3, cells only 24.6; 4H11 on vector control A2780-phrGFP: bar at the level of secondary alone, label overlapped
[14] = target: MUC16 c344 expressed on transfected cells (SKOV3-phrGFP-MUC16c344, A2780-phrGFP-MUC16c344) (human); assay: FACS surface staining of A2780-c344 transfectant cells, goat anti-mouse IgG2b-PE detection; same cells: secondary alone 69.8, cells only 33.7; 4H11 on vector control A2780-phrGFP: bar at the level of secondary alone, label overlapped

Sequence of MUC16 c344 expressed on transfected cells (SKOV3-phrGFP-MUC16c344, A2780-phrGFP-MUC16c344) (human) (chain, as listed by the source limits assumed): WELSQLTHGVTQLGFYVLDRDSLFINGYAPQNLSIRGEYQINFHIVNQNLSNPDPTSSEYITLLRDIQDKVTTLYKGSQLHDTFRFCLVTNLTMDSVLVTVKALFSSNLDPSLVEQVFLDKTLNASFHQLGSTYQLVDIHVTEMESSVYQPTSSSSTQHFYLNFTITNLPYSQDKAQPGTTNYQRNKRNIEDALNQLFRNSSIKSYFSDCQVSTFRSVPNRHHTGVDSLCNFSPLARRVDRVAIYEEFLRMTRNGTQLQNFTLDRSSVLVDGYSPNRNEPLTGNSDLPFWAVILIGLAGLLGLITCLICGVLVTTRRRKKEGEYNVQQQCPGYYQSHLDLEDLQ
Sequence of MUC16 c114 expressed on transfected SKOV3 cells (SKOV3^c114) (human) (chain, as listed by the source limits assumed): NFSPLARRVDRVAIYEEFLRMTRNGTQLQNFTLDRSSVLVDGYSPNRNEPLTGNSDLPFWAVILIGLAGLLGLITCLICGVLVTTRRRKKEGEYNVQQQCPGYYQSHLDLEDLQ

- immunoreactive fraction [1]: > 80%
- Kd [2]: 6.4 nM
- Immunoreactive Fraction (%) [3]: 88.3%
- EC50 (read off the curve) [4]: 6 nM
- Kd [4]: 6.37 nM
- Geometric Mean PE Fluorescence (Relative Number) [5]: 3050
- % PE Positive [6]: 98.5%
- Geometric Mean PE Fluorescence (Relative Number) [7]: 2080
- Geometric Mean PE Fluorescence (Relative Number) [8]: 1580
- % PE Positive [9]: 71.3%
- % PE Positive [10]: 93.8%
- % PE Positive [11]: 95.9%
- % PE Positive [12]: 41.2%
- Geometric Mean PE Fluorescence (Relative Number) [13]: 544
- Geometric Mean PE Fluorescence (Relative Number) [14]: 777
Substance: 4H11 murine monoclonal antibody
